Measured values published in article PMC4550792.

Columns and labels:
[1] = molecular target: human luteinizing hormone receptor (wildtype) (human) (UniProt P22888)
hLHR-Rluc8 (human) = hLHR-Rluc8 (human) (UniProt P22888)
Gαs-Rluc8 = Gαs-Rluc8 (UniProt P63092); assay: FRET or BRET; BRET in live HEK 293 cells transiently co-expressing Gαs-Rluc8 with Venus-Gγ2 or Venus-Gβ1 in the presence of hFSHR or hLHR; read every 0.5 s before and after injection of 10 nM hFSH or hCG; 96-well format
Sequence of UniProt P63092 (P63092 whole entry): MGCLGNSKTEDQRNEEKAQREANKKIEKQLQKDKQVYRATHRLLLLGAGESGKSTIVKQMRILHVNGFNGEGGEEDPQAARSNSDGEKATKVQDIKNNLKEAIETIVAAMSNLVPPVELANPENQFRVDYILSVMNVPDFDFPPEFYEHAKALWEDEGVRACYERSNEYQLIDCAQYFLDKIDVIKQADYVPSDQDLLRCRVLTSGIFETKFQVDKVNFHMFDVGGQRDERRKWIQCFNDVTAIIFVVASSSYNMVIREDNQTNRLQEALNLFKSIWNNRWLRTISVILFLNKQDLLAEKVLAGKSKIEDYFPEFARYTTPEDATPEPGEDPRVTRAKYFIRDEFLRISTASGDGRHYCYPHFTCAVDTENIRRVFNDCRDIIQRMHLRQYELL

Sequence of Venus-Gγ2 (P59768 whole entry): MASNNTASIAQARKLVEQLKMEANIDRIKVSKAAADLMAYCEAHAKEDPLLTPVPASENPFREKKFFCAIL

## β-arrestin 2-TEV fusion protein (from UniProt P32121 1-409) (natural protein)
FSHR/AVPR2-CT chimera
  TANGO assay (tTA-dependent firefly luciferase reporter in HTLA cells, 14–20 h with increasing hFSH); EC50 of hFSH: 5.7 nM

## human chorionic gonadotropin (from UniProt P01215 25-116; P0DN86 21-165) (ligand)
[1]
  cAMP accumulation, HTRF assay in HEK 293 cells expressing hLHR; EC50 of hCG: 0.0019 nM
  cAMP production, BRET sensor CAMYEL in HEK 293 cells expressing hLHR; EC50 of hCG: 0.0035 nM
hLHR-Rluc8 (human)
  receptor internalization, decrease of BRET between hLHR-Rluc8 and the plasma membrane marker Venus-KRas in HEK 293 cells; EC50 of hCG: 4.9 nM

## Venus-Gγ2 (from UniProt P59768 1-71) (natural protein)
Gαs-Rluc8
  t1/2 of the hFSH-induced BRET decrease (with hFSHR): 16.8 s
